Sequences and labels used below:
B2: CURVATURE THYLAKOID1A (CURT1A) of Arabidopsis thaliana, endogenous protein in thylakoid membranes (other)
chain: ASSEETSSIDTNELITDLKEKWDGLENKSTVLIYGGGAIVAVWLSSIVVGAINSVPLLPKVMELVGLGYTGWFVYRYLLFKSSRKELAEDIESLKKKIAGSE
notes: Thylakoid membrane protein as found in plant thylakoids; also called At4g01150

Data set [1] concerns the molecule itself. In words: quantification of CURT1A crosslinking products from thylakoids of WT and CURT1A-cmyc overexpressors.
Data set [2] concerns the molecule itself. The data set is described as follows: chemical crosslinking (BS3) of thylakoid proteins, SDS-PAGE and immunoblot, WT against curt1 mutants. (In general: In western blotting, separated proteins are transferred to a membrane and probed.)
Data set [3] deals with B2. The data set is described as follows: 2D-BN/SDS-PAGE of thylakoid multiprotein complexes (Fig. 5b).

B1: CURT1A with a C-terminal cmyc tag, expressed in curt1a-2 or WT plants (other)
chain: ASSEETSSIDTNELITDLKEKWDGLENKSTVLIYGGGAIVAVWLSSIVVGAINSVPLLPKVMELVGLGYTGWFVYRYLLFKSSRKELAEDIESLKKKIAGSE
notes: Coding region under the 35S promoter; also called CURT1A-cmyc; cmyc-tagged CURT1A; not shown: C-terminal cmyc tag from vector pPCV812deltaNotI-Lola
Take B1: the binding result in data set [1] was “binds”.

As to B2, the binding result in data set [2] is on record as “binds”.

B3: CURVATURE THYLAKOID1C (CURT1C) of Arabidopsis thaliana, endogenous protein in thylakoid membranes (other)
chain: ASGESSDSSTDLDVVSTIQNVWDKSEDRLGLIGLGFAGIVALWASLNLITAIDKLPVISSGFELVGILFSTWFTYRYLLFKPDRQELSKIVKKSVADILGQ
notes: Thylakoid membrane protein as found in plant thylakoids; also called At1g52220
Consider B3, for which, in data set [3], the binding result is given as “binds”.

Source of the values: patent EP2801619A1 (Fondazione Edmund Mach, dated 2014).
